First the molecules themselves.
B1: SAGA complex subunit SGF11 (Saccharomyces cerevisiae), Q03067 (parent)
chain: MTEETITIDSISNGILNNLLTTLIQDIVARETTQQQLLKTRYPDLRSYYFDPNGSLDINGLQKQQESSQYIHCENCGRDVSANRLAAHLQRCLSRGARR
partner: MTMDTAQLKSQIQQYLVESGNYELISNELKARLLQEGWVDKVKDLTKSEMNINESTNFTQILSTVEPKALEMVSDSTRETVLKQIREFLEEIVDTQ

The text below walks through data of IntAct's records for PubMed 20007317.

In the assay the parent is B1. As to conditions: with sus1_yeast SUS1, Q6WNK7.
With MTEETITIDSISNGILNALLTTLIQDIVARETTQQQLLKTRYPDLRSYYFDPNGSLDINGLQKQQESSQYIHCENCGRDVSANRLAAHLQRCLSRGARR [N18A], the “effect of a mutation on the interaction” value is recorded as “decreasing interaction”. Take MTEETITIDSISNGALNNLLTTLIQDIVARETTQQQLLKTRYPDLRSYYFDPNGSLDINGLQKQQESSQYIHCENCGRDVSANRLAAHLQRCLSRGARR [I15A]: the “effect of a mutation on the interaction” value is “decreasing interaction”. The same measure for MTEETITIDSISNGILNNALTTLIQDIVARETTQQQLLKTRYPDLRSYYFDPNGSLDINGLQKQQESSQYIHCENCGRDVSANRLAAHLQRCLSRGARR [L19A]: “decreasing interaction”.
